Reference: publication PMC5087665

Biological target: CFF–Myc
Test: co-IP; Fig. 5D: HEK293T lysates co-expressing HA–TNPO1, CFF–Myc and GFP–Rab8-wt, GFP–Rab8-QL, GFP–Rab8-TN or GFP; anti-Myc immunoprecipitation; blotted for TNPO1 and GFP chimeras

Sequence of HA–TNPO1 (Q92973 whole entry): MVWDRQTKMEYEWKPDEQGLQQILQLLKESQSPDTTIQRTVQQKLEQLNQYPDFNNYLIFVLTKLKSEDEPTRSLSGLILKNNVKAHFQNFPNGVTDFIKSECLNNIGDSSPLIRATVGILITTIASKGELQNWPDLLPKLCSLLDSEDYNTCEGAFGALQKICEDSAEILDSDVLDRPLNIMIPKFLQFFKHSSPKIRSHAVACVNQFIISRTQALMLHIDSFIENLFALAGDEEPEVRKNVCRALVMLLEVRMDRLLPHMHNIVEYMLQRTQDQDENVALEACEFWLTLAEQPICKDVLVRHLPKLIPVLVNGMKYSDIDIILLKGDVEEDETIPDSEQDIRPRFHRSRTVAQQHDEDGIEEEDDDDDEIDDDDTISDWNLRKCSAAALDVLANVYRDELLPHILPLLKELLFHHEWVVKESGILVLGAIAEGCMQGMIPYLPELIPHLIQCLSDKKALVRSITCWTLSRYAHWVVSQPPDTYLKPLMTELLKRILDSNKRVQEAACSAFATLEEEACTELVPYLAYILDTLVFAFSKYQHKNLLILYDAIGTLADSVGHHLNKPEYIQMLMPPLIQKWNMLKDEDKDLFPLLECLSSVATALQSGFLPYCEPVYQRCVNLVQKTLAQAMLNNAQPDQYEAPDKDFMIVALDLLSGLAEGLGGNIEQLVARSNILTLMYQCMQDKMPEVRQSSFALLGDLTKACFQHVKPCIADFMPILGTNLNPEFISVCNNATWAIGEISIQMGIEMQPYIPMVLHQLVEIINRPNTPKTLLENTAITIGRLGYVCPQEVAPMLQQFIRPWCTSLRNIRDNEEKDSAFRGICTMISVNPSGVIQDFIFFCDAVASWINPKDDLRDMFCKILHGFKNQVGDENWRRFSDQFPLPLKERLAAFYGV

**Q.** Which fold more TNPO1 co-immunoprecipitated with Rab8-TN co-expressed than with Rab8-QL or Rab8-wt does the source give for “HA–TNPO1 (from UniProt Q92973 1-898) (natural protein)” here?
**A.** The fold more TNPO1 co-immunoprecipitated with Rab8-TN co-expressed than with Rab8-QL or Rab8-wt was 3 fold.
